# Data taken from the RNAGym collection of RNA variant scans (doi:10.1073/pnas.2313332121).
# B1: TPR t1 (parent)
# chain: GACCAAUCUGCCCUCAGAGCUCGAGAACAUCUUCGGAUGCAGAGGAGGCAGGCUUCGGUGGCGCGAUAGCGCCAACGUCCUCAACCUCCAAUGCAUCCCACCACAUGAUGAUGCCUGAAGAGCCUUGGUUUUUUG
# Variants of: B1
# Assay: polymerase ribozyme fitness, log enrichment relative to wild type (log ratio); higher = more active; in vitro selection for triplet polymerase activity
# Outline: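 Libraries of mutants in each subunit of a heterodimeric triplet polymerase ribozyme were generated by PCR and transcribed. In triplicate, each went through one in vitro selection round: annealing with biotinylated primer, partner subunit and triplets; frozen incubation at −7 °C; gel excision of extended constructs; streptavidin-bead capture; RT-PCR. Fitness, taken from Illumina sequencing of input and output libraries, is the logarithm of a genotype's enrichment over wild-type enrichment, averaged across replicates with inverse-variance weights. The logarithm is base 2, and genotypes needed ≥10 input reads and ≥1 read per output to be kept.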
row,Variant,polymerase ribozyme fitness (log ratio)
1,GACCAAUCUGCCCUCAGAGCUCGAGAACAUCUUCGUAUGCAGAUGAGGCAGGCUUCGGUGGCGCGAUAGCGCCAGCGUCCUCAACCUCCAAUGCAUCCCACCACAUGAUGACGCCUGAAGAGCCUUGGUUGUUUG [G36U G44U A75G U112C U131G],-1.21
2,GACCAAUCUGCCCUCAGAGCUCGAGAACAUCUUCGUAUGCAGAGGAGGCAGGCUUCGGUGGCGCGAUAACGCCAACGUCCACAACCUCCAAUGCAUCCCACCACAUGAUGAUGCCUGAAGAGCCUUGGUUUUUUG [G36U G69A U81A],-3.96
3,GACCAAUCUGCCCUCAGAGCUCGAGAACAUCUUCGUAUGCACAGGAGGCAGGCUUCGGUGGCGCGAUAGCGCCAACGUCCUCAACCUCCAAUGCAUCCCACCACAUGAUGAUGCCUGAAGAGCCUUGGUUUUUUG [G36U G42C],-2.93
4,GACCAAUCUGCCCUCAGAGCUCGAGAACAUCUUCGUAUGCAAAGGAGGCAGGCUUCGGUGGCGCGAUAGCGCCAACGUCCUCAACCUCCAAUGCAUCCCACCACAUGAUGAUGCCUGAAGAGCCUUGGUUUUUUG [G36U G42A],-3.47
5,GACCAAUCUGCCCUCAGAGCUCGAGAACAUCUUCGUAUGCAGAGGAGGCAGGCUUCGGUGGCGCGAUAUCGCCAACGUCCUCAACCUCCAAUGCAUCCCACCACAUGAUGAUGCCUGAAGAGCCUUGGUUUUUUG [G36U G69U],-0.697
6,GACCAAUCUGCCCUCAGAGCUCGAGAACAUCUUCGUAUGCAGAGGAGGCAGGCUUCGGUGACGCGAUAGCGCCAACGUCCUCAACCUCCAAUCCAUCCCACCACAUGAUGAUGCCUGAACAGCCUUGGUUUUUUG [G36U G61A G93C G120C],-0.0777
7,GACCAAUCUGCCCUCAGAGCUCGAGAACAUCUUCGUAUGCAGAGGAGGCAGGCUUCGGCGGCGCGAUAGCGCCAACGCCCUCAACCUCCAAUGCAUCCCAUCACAUGAUGAUGCCUGAAGAGACUUGGUUUUUUG [G36U U59C U78C C101U C123A],-1.25
8,GACCAAUCUGCCCUCAGAGCUCGAGAACAUCUUCGUAUGCAGAUGAGGCAGGCUUCGGUGGCGCGAUAGCGCCAACGUCCUCAACCUCCAAUGCAUCCCACCACAUGAUGAUGCCUGAAGAGCCUUGGUUUUUUG [G36U G44U],-2.24
9,GACCAAUCUGCCCUCAGAGCUCGAGAACAUCUUCGUAUGCAGAGGAGGCAGGCUUCGGUGGCGCGAUAGCUCCAACGUCCUCAACCACCAAUGCAUCCCACCAAAUGAUGAUUCUUGAAGAGCCUUGGUAUUUUG [G36U G71U U87A C104A G113U C115U U130A],-7.12
10,GACCAAUCUGCCCUCAGAGCUCGAGAACAUCUUCGUAUGCAGAGGAUGCAGGCUUCGGAGGCGCGAUAGCGCCAACGUCCUCAACCUCCAAUGCAUCCCACCACAUGAUGAUGCCUCAAGAGCCUUGGUUUUUUG [G36U G47U U59A G117C],-6.9
11,GACCAAUCUGCCCUCAGAGCUCGAGAACAUCUUCGUAUGCAUAGGAGGCAGGCUUCGGUGGCGCGAUAGCGCCAACGUCCUCAACCUCCAAUGCAUCCAACCACAUGAUGAUGACUGAAGAGCCUUGGUUUUUUG [G36U G42U C99A C114A],-7.29
12,GACCAAUCUGCCCUCAGAGCUCGAGAACAUCUUCGUAUGCAGAGGAGGCAGGCUUCGGUGGCGCGAUAGCACCAACGUCCUCAACCUCCAAUGCAUCCCACCACAUGAUGAUGCCUGAAGAGCCUUGGUUUUUUG [G36U G71A],-1.86
13,GACCAAUCUGCCCUCAGAGCUCGAGAACAUCUUCGUAUGCAGAGGAGGCAGGCUUCGGUGGCGCGAUAGCGCCAACCUCCUCAACCUCCAUUGCAUCCCACCACAUGAUGAUGCCUGAAGAGCCUUGGUUUUUUG [G36U G77C A91U],-4.63
14,GACCAAUCUGCCCUCAGAGCUCGAGAACAUCUUCGUAUGCAGAGGAGUCAGGCUUCGGUGGCGCGAUAGCGCCAACGUCCUCAACCUCCAAUGCAUCCCACCACAUGAUGAUGCCUGAAGAGCCUUGGUUUAUUC [G36U G48U U132A G135C],-1.44
15,GACCAAUCUGCCCUCAGAGCUCGAGAACAUCUUCGUAUGCAGAUGAGGCAGGCUUCGGUGGCGCGAUAGCGCCAACGUCCUCAACCUCCAAUGCAUCCCACCACAUGAUGAGGCCUGAAGAGCCUUGGUUUUUUG [G36U G44U U112G],-4.18
16,GACCAAUCUGCCCUCAGAGCUCGAGAACAUCUUCGUAUGCAGAGGAGGCAGGCUUCGGUGGCGCGAUAUCGCCAACGUCCUCAACCUCCAAUGCACCCCAUCACAUGAUGAUGCCUGAAGAGCCUAGGUUUUUUG [G36U G69U U96C C101U U126A],-2.59
17,GACCAAUCUGCCCUCAGAGCUCGAGAACAUCUUCGUAUGCAGAGGAGGCAGGCUUCGGUGGCGCGAUAGCGCCAACAUCCUCAACCUCCAAUGCAUCCCACCACAUGAUGAUUCCUGAAGAGCCUUGGUUUUUUG [G36U G77A G113U],-3.33
18,GACCAAUCUGCCCUCAGAGCUCGAGAACAUCUUCGUAUGCAGAGGAGGCAGGCUUCGGUCGCGCGAUAGCGCCAACGUCCUCAACCUCCAAUGCAUCCCUCCACAUGAUGAUGCCUGAAGAGCCUUGGUUUUUUG [G36U G60C A100U],-2.77
19,GACCAAUCUGCCCUCAGAGCUCGAGAACAUCUUCGUAUGCAGAGGAGGCAGGCUUCGGAGGCGCGAUAGCGCCAACGUCCUCAACCUCCAAUCCAUCCCACCACAUGAUGAUGCCUGAACAGCCUUGGUUUUUUG [G36U U59A G93C G120C],-0.759
20,GACCAAUCUGCCCUCAGAGCUCGAGAACAUCUUCGUAUGCAGAGGAGGCAGGCUUCGGUAGCGCGAUAGCGCCAACGUCCUCAACCUCCAAUGCAUCCCACCACAUGAUGAUGCCUGAAGAGCCUUGGUUUUUUG [G36U G60A],-1.61
21,GACCAAUCUGCCCUCAGAGCUCGAGAACAUCUUCGUAUGCAGAGGAAGCAGGCUUCGGUGGCGCGAUAGCGCCAACGUUCUCAACCUCCAAUGCAUCCCACCACAUGAUGAUGCCUGAAGAGCCUUGGUUUUUUG [G36U G47A C79U],-2.47

row,Variant,polymerase ribozyme fitness (log ratio)
1,GACCAAUCUGCCCUCAGAGCUCGAGAACAUCUUCGUAUGCAGAGGAGGCAGGCUUCGGUGGCACGAUAGCGCCAACGUCCUCAACCUCCAAUGCAUCCCACCACAUGAUGAUGCCUGAAGAGCCUUGGUUUUUUG [G36U G63A],-1.69
2,GACCAAUCUGCCCUCAGAGCUCGAGAACAUCUUCGUAUGCAGAGGAGGCAGGCUUCGGUGUCGCGAUAGCGCCAACGUCCUCAACCUCCAAUGCAUCCCACCACAUGAUGAUGCCUGAAGAGCCUUGGUUUUUUG [G36U G61U],-0.625
3,GACCAAUCUGCCCUCAGAGCUCGAGAACAUCUUCGUAUGCAGAGGAGGCAGGCUUCGGUGCCGCGAUAGCGCCAACGUCCUCAACCUCCAAUGCAUCCCACCACAUGAUGAUGCCUGAAGAGCCUUGGUUUUUUG [G36U G61C],-2.58
4,GACCAAUCUGCCCUCAGAGCUCGAGAACAUCUUCGUAUGCAGAGGAGGCAAGCUUCGGUUGCGCGAUAGCGCCAACGUCCUCAACCUCCAAUGCAUCCCACCACAUGAUGACGCCUGAAGAGUCUUGGUUUUUUG [G36U G51A G60U U112C C123U],-1.16
5,GACCAAUCUGCCCUCAGAGCUCGAGAACAUCUUCGUAUGCAGAAGAGGCAGGCUUCGGUGGCGCGAUAGCGCCAACGUCCUCAACCUCCAAUGCAUCCCACCAAAUGAUGAUGCCUGAAGAGCCUUGGUUUUUUG [G36U G44A C104A],-4.47
6,GACCAAUCUGCCCUCAGAGCUCGAGAACAUCUUCGUAUGCAGAGGAGGCAGGCUUCGGUGGCGCGAUAGCACCAACGUCCUCAACCUCCAAUGCAUCCCACCACAUGAUGAUGCCUGAAUAGCCUUGGUUUUUUG [G36U G71A G120U],-1.04
7,GACCAAUCUGCCCUCAGAGCUCGAGAACAUCUUCGUAUGCAGAAGAGGCAGGCUUCGGAAGCGCGAUAGCGCCAACCUCCUCAACCUCCAAUGCAUCCCACCACAUGAUGACGCCUGAAGAGCCUUGGUUUUUUG [G36U G44A U59A G60A G77C U112C],0.0936
8,GACCAAUCUGCCCUCAGAGCUCGAGAACAUCUUCGUAUGCAGAGGAGGCAGGCUCCGGUGGCGCGCUAGCGCCAACGUCCUCAACCUCCAAUGCAUCCCACCACAUGAUGAUGCCUGAAGAGCCUUGGUUUUUUG [G36U U55C A66C],-3.51
9,GACCAAUCUGCCCUCAGAGCUCGAGAACAUCUUCGUAUGCAGAGUAUGCAGGCUUCGGUGGCGCGAUAGCGCCAACGUCCUCAACCUCCAAUGCAUCCCAUCAAAUGAUGAUGCCUGAAGAGGCCUGGUUUUUUG [G36U G45U G47U C101U C104A C123G U125C],-5.24
10,GACCAAUCUGCCCUCAGAGCUCGAGAACAUCUUCGUAAGCAGAGGAGUCAGGCUUCGGUGUCACGAUAGCGCCAACGUCCUCAACCUCCAAUGCAUUCCACCACAUGAUGAUGCUUGAAGAGCCUUGGUUUUUUG [G36U U38A G48U G61U G63A C97U C115U],-5.64
11,GACCAAUCUGCCCUCAGAGCUCGAGAACAUCUUCGUAUGCAGAGGAGGCAGGCUUCGUAGGCGCGAUAGCGCCAACGUCCUCAACCUCCACUGCAUCCCACCACAUGAUGAAGCCUGAAGAGCCUUGGUUUUUUG [G36U G58U U59A A91C U112A],-2.22
12,GACCAAUCUGCCCUCAGAGCUCGAGAACAUCUUCGUAUGCAGAGGAGACAGGCUUCGGUGGCGCGAUAGCGUCAACGUCCUCAACCUCCAAUGCAUCCCACCACAUGAUGAUGCCUGAAGAGCCUUGGUUUUUUG [G36U G48A C72U],-1.42
13,GACCAAUCUGCCCUCAGAGCUCGAGAACAUCUUCGUAUGCAGAGGAGGCAGGCUUCGGUGGCCCGAUAGCGCCAAGGUCCUCAACCUCCAAUGCAUCCCACCACAUGAUGAUGCCUAAAGAGCCUUGGUUUUUUG [G36U G63C C76G G117A],-5.18
14,GACCAAUCUGCCCUCAGAGCUCGAGAACAUCUUCGUAUGCAGAAGAAUCAGGCUUCGGUGGCGCGAUAGCGCCAACGUCCUGAACCUCCAAUGCAUCCCACCACAUGAUGAUGCCUGAAGCGCCUUGGUUUUUUG [G36U G44A G47A G48U C82G A121C],-0.473
15,GACCAAUCUGCCCUCAGAGCUCGAGAACAUCUUCGUAUGCAGAGGAGGCAGGCUUCGGUGGCACGAUAGCGCCAACGUCCUCAAACUCCAAUGCAUCCCACCACAUGAUGAUGCCUGAAGAGCCUUGGUUUUUUG [G36U G63A C85A],-3.57
16,GACCAAUCUGCCCUCAGAGCUCGAGAACAUCUUCGUAUCCAGAGGAGGCAGGCUUCGGUGGCGCGAUAGCGCCAACGUCCUCAACCUCCAAUGCAUCCCACCACAUGAUGAUGCCUGAAGAGCCUUGGUUUUUUG [G36U G39C],-1.56
17,GACCAAUCUGCCCUCAGAGCUCGAGAACAUCUUCGUAUGCAGAGGAGGCAGGCAUCGGUGGCGCGAUAGCGACAACGUCCUCAACCUCCAAUGCAUCCCACCACAUGAUGAUGCCUGAAGAGCCUUGGUUUUUUG [G36U U54A C72A],-0.869
18,GACCAAUCUGCCCUCAGAGCUCGAGAACAUCUUCGUAUGCAGAAGAAUCAGGCUUCGGUGGCGCGAUAUCGCCAACGUCCUGAACCUCCAAUGCAUCCCACCACAUGAUGAUGCCUGAAGCGCCUUGGUUUUUUG [G36U G44A G47A G48U G69U C82G A121C],0.343
19,GACCAAUCUGCCCUCAGAGCUCGAGAACAUCUUCGUAUGCAGAGGAGGCAGGCUUCGGUGGCGCGAUAGCGCCAACGUCCUCAACCUCCAAUGCAUCCCACCACAUGAUCAUGCCUGAAGAGCCUUGGUUUUUUG [G36U G110C],-4.93
20,GACCAAUCUGCCCUCAGAGCUCGAGAACAUCUUCGUAUGCAGAGGAUGCAGGCUUCGGUGACGCGAUAGCGCCAACGUCCUCAACCUCCAAUGCAUCCCACCACAUGAUGAUGCCUGAAGAGCCUUGGUUUUUUG [G36U G47U G61A],-4.11
21,GACCAAUCUGCCCUCAGAGCUCGAGAACAUCUUCGUAUGCAGAGGAGGCAGGCUUCGCUGGCGCGAUAGCGCCAACGUCCUCAACCUCAACUGCAUCCCACCACAUGAUGAUGCUUGAAGAGCCUUGGUUUUUUG [G36U G58C C89A A91C C115U],-4.15
